Laboratory results published in patent US20220396632A1 (VERSEAU THERAPEUTICS, published 2022).

Legend:
[1] = molecular target: T1, PSGL-1(42-62) N-terminal peptide, sulfation state not told at the place (human, not fully specified; sulfation of Y46, Y48, Y51 not stated for these table columns); test: mAb binding to PSGL-1(42-62)
T1 peptide: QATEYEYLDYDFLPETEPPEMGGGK

[2] = molecular target: T2, Recombinant human PSGL-1(ECD)-hFc1 (R&D Systems, Cat. 3345-PS) (human, UniProt Q14242 42-305); test: Octet tandem; competitor 15A7
T2 construct: Bought; Gln42-Val295 counted on AAC50061; also called PSGL-1-Fc; PSGL-1-hFc1 chimera; not shown: human IgG1 Fc, Pro100-Lys330
T2 sequence: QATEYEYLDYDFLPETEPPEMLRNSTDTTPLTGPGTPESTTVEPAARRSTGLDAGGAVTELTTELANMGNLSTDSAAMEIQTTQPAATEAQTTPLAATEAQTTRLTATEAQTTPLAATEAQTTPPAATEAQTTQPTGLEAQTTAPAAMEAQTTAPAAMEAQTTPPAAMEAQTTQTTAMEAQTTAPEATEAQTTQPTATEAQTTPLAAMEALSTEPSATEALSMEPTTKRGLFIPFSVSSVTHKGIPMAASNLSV
Method: (§1) Antibody binning was performed by ForteBio Octet® using a tandem assay format, with anti-human IgG biosensor-immobilized PSGL-1(ECD)-hFc1 protein, binding of competitor mAb followed by analyte antibody. As competition controls, the same antibody was competed against itself, and mAb competition was performed bidirectionally.
(§2) Antibody binning by tandem octet was performed by immobilizing 10 ug/mL PSGL-1(ECD)-hFc1 (R&D Systems, Cat. #3345-PS) in PBS, pH 7.4, onto anti-human IgG capture biosensors (ForteBio, Cat. #18-5060), binding of 100 nM competitor antibody for 300 sec., followed by binding of 100 nM of analyte mAb for 300 s in kinetic buffer (0.1% BSA in PBS containing 0.02% tween 20 and 0.05% sodium azide, pH 7.4). Synagis (Johnson et al. (1997) J. Infect. Dis. 176:1215-1224) served as a negative control mAb for competition. An Fc quench step (0.25 mg/mL human IgG Fcl; BioXcell, Cat. #BE0096, in kinetic buffer) was included when human mAbs were tested to prevent high background from the antibodies binding to the anti-human IgG biosensor. Biosensor regeneration buffer consisted of 10 mM glycine, pH 2.0.

[3] = molecular target: T2, Recombinant human PSGL-1(ECD)-hFc1 (R&D …); test: Octet tandem; competitor 16E17
Method: as §1, §2

[4] = molecular target: T2, Recombinant human PSGL-1(ECD)-hFc1 (R&D …); test: Octet tandem; competitor 18F17
Method: as §1, §2

[5] = molecular target: T2, Recombinant human PSGL-1(ECD)-hFc1 (R&D …); test: Octet tandem; competitor 18K07
Method: as §1, §2

[6] = molecular target: T2, Recombinant human PSGL-1(ECD)-hFc1 (R&D …); test: Octet tandem; competitor 19J23
Method: as §1, §2

[7] = molecular target: T2, Recombinant human PSGL-1(ECD)-hFc1 (R&D …); test: Octet tandem; competitor 19L04
Method: as §1, §2

[8] = molecular target: T2, Recombinant human PSGL-1(ECD)-hFc1 (R&D …); test: Octet tandem; competitor 19N05
Method: as §1, §2

[9] = molecular target: T2, Recombinant human PSGL-1(ECD)-hFc1 (R&D …); test: Octet tandem; competitor 20G13
Method: as §1, §2

[10] = molecular target: T2, Recombinant human PSGL-1(ECD)-hFc1 (R&D …); test: blocking ELISA vs L-selectin-Fc
Method: (§3) A typical selectin blocking ELISA assay involved coating high binding half-well plates (Corning, Cat. #3690) with 2.5 ug/mL/25 ul per well of recombinant PSGL-1-Fc protein (R&D Systems, Cat #3345-PS) in PBS, pH 7.4, overnight at 4° C. […] Antibody (test and controls) was serially diluted (25 ul/well) in duplicate in assay buffer (3% BSA in wash buffer) into appropriate wells and the plate incubated for 45 min at 37° C. […] The plate was washed ×3 and HRP-conjugated streptavidin was added in assay buffer [25 ul per well; (Jackson Immunoresearch, Cat. #016-030-084)] and the plate incubated for 45 min at 37° C. […] For each antibody, an IC50 value was determined from sigmoidal fitted titration curves.

[11] = molecular target: T2, Recombinant human PSGL-1(ECD)-hFc1 (R&D …); test: blocking ELISA vs P-selectin-Fc
Method: as §3

[12] = molecular target: T2, Recombinant human PSGL-1(ECD)-hFc1 (R&D …); test: blocking ELISA vs VISTA-Fc, pH 6.0
[13] = molecular target: T3, Biotin PSGL-1(105-125) peptide (human, N-terminal acetyl; C-terminal Lys-biotin); test: ELISA; against WT PSGL-1(ECD)-hFc1
T3 peptide: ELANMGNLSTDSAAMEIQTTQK
Method: (§4) A typical ELISA experiment involved binding of a single concentration or serially diluted mAb in assay buffer (3% BSA in PBS containing 0.05% Tween®20, pH 7.4) onto BSA blocked high binding microtiter plate half-wells (Corning Cat. #3690), which contained PSGL-1 protein or streptavidin-immobilized biotin peptide. After incubation for 45 min. at 37° C., the plate was washed 3 times with wash buffer (PBS containing 0.05% Tween®20, pH 7.4), and an appropriate HRP-conjugated secondary antibody added (25 ul/well) (HRP goat anti-mouse or anti-human IgG). After 45 min. incubation at 37° C., the plate was washed and antibody bound to plate-immobilized target was determined at A450 nm using HRP substrate (3,3′5,5′-tetramethylbenzidine (TMB)). For each antibody, duplicate values were averaged and assay background subtracted.

[14] = molecular target: PSGL-1(ECD)-hFc1 S116A protein (Sino Biological) (human); test: ELISA; against WT PSGL-1(ECD)-hFc1
PSGL-1(ECD)-hFc1 S116A protein (Sino Biological) (human), sequence (chain, as listed by the source S116A S116A): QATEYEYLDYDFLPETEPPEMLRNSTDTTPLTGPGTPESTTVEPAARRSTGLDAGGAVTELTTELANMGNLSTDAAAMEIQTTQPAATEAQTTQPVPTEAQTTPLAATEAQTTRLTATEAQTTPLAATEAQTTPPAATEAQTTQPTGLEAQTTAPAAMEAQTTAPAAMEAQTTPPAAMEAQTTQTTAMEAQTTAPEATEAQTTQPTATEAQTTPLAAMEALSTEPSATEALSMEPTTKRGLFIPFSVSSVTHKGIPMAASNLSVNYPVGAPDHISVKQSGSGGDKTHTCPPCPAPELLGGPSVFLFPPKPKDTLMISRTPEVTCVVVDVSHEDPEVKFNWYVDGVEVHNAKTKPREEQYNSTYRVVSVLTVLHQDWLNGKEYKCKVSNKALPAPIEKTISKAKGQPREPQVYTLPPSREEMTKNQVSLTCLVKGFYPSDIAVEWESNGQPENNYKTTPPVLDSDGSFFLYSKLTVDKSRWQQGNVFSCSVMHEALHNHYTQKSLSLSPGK
Method: as §4

[15] = molecular target: PSGL-1(ECD)-hFc1 M119A protein (Sino Biological) (human); test: ELISA; against WT PSGL-1(ECD)-hFc1
Method: as §4

[16] = molecular target: PSGL-1(ECD)-hFc1 I121A protein (Sino Biological) (human); test: ELISA; against WT PSGL-1(ECD)-hFc1
PSGL-1(ECD)-hFc1 I121A protein (Sino Biological) (human), sequence (chain, as listed by the source I121A I121A): as the sequence (chain, as listed by the source S116A S116A) above, with A75S, I80A counted along it
Method: as §4

[17] = molecular target: T3, Biotin PSGL-1(105-125) peptide; test: ELISA, plate-bound peptide or protein
Method: as §4

[18] = molecular target: PSGL-1(ECD)-hFc1 S116A protein (Sino Biological) (human); test: ELISA, plate-bound peptide or protein
Method: as §4

[19] = molecular target: PSGL-1(ECD)-hFc1 M119A protein (Sino Biological) (human); test: ELISA, plate-bound peptide or protein
Method: as §4

[20] = molecular target: PSGL-1(ECD)-hFc1 I121A protein (Sino Biological) (human); test: ELISA, plate-bound peptide or protein
Method: as §4

[21] = molecular target: T4, Biotin PSGL-1(290-310) peptide (human, N-terminal acetyl; C-terminal Lys-biotin); test: ELISA; against WT PSGL-1(ECD)-hFc1
T4 peptide: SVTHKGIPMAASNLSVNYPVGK
Method: as §4

[22] = molecular target: T4, Biotin PSGL-1(290-310) peptide; test: ELISA, plate-bound peptide or protein
Method: as §4

[23] = molecular target: T2, Recombinant human PSGL-1(ECD)-hFc1 (R&D …); test: ELISA, plate-immobilized protein
Human PSGL-1(ECD)-HIS = molecular target: T5, Human PSGL-1(ECD)-HIS (human, UniProt Q14242 42-319); test: ELISA, plate-immobilized protein
T5 construct: also called Human PSGL-1-His
T5 sequence: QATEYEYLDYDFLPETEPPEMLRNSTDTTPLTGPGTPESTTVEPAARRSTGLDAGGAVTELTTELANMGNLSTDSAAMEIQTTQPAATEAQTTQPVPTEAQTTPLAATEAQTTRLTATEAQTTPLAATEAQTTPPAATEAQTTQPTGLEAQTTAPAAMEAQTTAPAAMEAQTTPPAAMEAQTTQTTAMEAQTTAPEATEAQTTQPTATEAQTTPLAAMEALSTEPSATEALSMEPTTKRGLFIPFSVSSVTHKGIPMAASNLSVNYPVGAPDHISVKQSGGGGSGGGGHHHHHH

[24] = molecular target: T6, Cynomolgus PSGL-1(ECD)-HIS (cynomolgus macaque); test: ELISA, plate cyno PSGL-1(ECD)-HIS
T6 construct: also called Cyno PSGL1-His
T6 chain: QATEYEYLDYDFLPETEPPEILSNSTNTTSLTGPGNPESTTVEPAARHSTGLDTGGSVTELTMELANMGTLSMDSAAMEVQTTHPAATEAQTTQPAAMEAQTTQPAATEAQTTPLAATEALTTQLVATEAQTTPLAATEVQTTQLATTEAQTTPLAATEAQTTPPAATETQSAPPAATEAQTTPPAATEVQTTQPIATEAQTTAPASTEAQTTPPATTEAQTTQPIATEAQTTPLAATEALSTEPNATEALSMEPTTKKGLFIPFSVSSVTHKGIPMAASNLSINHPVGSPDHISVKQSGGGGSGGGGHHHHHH
Method: Antibody binding to plate-immobilized cyno PSGL-1(ECD) was determined either at one concentration (20 nM) or by generating full antibody binding curves (0.003-200 nM). A typical ELISA was performed by overnight coating at 4° C. with 3 ug/mL/25 ul per well of recombinant cyno PSGL-1(ECD) protein in PBS, pH 7.4, in high binding half-well plates (Corning Cat. #3690). […] Anti-PSGL-1 IgG in assay buffer (blocking buffer containing 0.05% tween 20) was added into test and control wells (20 nM/25 ul/well) and the plate incubated for 45 min at 37° C. […] The plate was incubated for 45 min at 37° C., and mAb bound to plate-immobilized target determined at A450 nm using HRP substrate (3,3′,5,5′-tetramethylbenzidine (TMB)). For each antibody, duplicate values were averaged and assay background subtracted.

Binder	binding result [1]	% binding of analyte mAb [2] [%]	% binding of analyte mAb [3] [%]	% binding of analyte mAb [4] [%]	% binding of analyte mAb [5] [%]	% binding of analyte mAb [6] [%]	% binding of analyte mAb [7] [%]	% binding of analyte mAb [8] [%]	% binding of analyte mAb [9] [%]	also measured
15A7 (antibody, V domains shown, Control mAb, recombinant; also called h15A7; 15A17) VH: EVQLVESGGGLVQPGGSLRLSCAASGFTFSSFGMHWVRQAPGKGLEWVAYINGGSSTIFYANAVKGRFTISRDNAKNTLYLQMNSLRAEDTAVYYCARYASYGGGAMDYWGQGTLVTVSS VL: DIQMTQSPSSLSASVGDRVTITCRSSQSIVHNDGNTYFEWYQQKPGKAPKLLIYKVSNRFSGVPSRFSGSGSGTHFTLTISSLQPEDFATYYCFQGSYVPLTFGQGTKVEIK	no binding	28.3	56.2	86.6	91.5	94.3	48	46.2	15.1	% max Block [10]: 0%; % max Block [11]: 0%; % max Block [12]: 0%; EC50/EC50WTprot [13]: 7.18 fold; EC50/EC50WTprot [14]: 0.78 fold; EC50/EC50WTprot [15]: ~30 fold; EC50/EC50WTprot [16]: ~60 fold; EC50 [17]: 4.31 nM; EC50 [18]: 0.25 nM; EC50 [19]: ~10 nM; EC50 [20]: ~20 nM
19J23 (antibody, V domains shown, Non-functional anti-PSGL-1 mAb (Verseau); only variable domains given) VH: EVKLVESGGGLVQPGGSLSLSCAASGFTFTDYYMSWVRQPPGKALEWLALIRNKANGYTTEYSASVKGRFTISRDDSQSILYLQVNALRAEDVATYYCARPWDYWGQGTTLTVSS VL: not shown	–	84.9	93.3	52.1	100	29.2	68.9	76.6	55.9	EC50/EC50WTprot [21]: 3.1 fold; EC50 [22]: 2.19 nM; binding result [23]: no binding (tested: Log M -7.4 (about 40 nM)); EC50 (read off the curve) (Human PSGL-1(ECD)-HIS): ~0.9 nM
20H10 (antibody, V domains shown, Mouse hybridoma mAb; only variable domains given) VH: QVQLQQPGTELVKPGASVKLSCKASGYTFTNFWMHWVRQRPGQGLEWIGKINPGNGGTRYNEKFKTKATLTVDRSSSTACIQLSSLTSEDSAVYYCTSTNWDPYFDYWGQGTTLTVSS VL: not shown	no binding	–	–	–	–	–	–	–	–	binding result [24]: no binding
